# Results: patent US20190077860A1 (EISAI R AND D MANAGEMENT, published 2019)
# Numbering of substitutions follows the chain as printed.
# T1: human EphB3 extracellular region-SEAP-His protein (human, UniProt P54753 34-559)
# T1 construct: extracellular domain; also called hEphB3-SEAP-His
# T1 sequence (looked up): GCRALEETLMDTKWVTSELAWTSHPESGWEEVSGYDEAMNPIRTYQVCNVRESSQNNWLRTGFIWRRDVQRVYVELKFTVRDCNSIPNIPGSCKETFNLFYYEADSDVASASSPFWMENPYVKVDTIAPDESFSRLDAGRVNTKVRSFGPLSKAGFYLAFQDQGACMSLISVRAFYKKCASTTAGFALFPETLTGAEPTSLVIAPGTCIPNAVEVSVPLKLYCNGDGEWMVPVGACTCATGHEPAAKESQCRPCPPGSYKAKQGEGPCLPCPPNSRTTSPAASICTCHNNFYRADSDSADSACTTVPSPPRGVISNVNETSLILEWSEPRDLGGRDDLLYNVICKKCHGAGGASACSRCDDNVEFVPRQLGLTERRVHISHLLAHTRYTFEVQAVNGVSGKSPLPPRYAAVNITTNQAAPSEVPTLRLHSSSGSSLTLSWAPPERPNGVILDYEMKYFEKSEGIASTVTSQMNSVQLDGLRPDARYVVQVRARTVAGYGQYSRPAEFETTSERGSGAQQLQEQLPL
# T2: human EphB2 extracellular region-SEAP-His protein (human, UniProt P29323 19-543)
# T2 construct: extracellular domain; also called hEphB2-SEAP-His
# T2 sequence (looked up): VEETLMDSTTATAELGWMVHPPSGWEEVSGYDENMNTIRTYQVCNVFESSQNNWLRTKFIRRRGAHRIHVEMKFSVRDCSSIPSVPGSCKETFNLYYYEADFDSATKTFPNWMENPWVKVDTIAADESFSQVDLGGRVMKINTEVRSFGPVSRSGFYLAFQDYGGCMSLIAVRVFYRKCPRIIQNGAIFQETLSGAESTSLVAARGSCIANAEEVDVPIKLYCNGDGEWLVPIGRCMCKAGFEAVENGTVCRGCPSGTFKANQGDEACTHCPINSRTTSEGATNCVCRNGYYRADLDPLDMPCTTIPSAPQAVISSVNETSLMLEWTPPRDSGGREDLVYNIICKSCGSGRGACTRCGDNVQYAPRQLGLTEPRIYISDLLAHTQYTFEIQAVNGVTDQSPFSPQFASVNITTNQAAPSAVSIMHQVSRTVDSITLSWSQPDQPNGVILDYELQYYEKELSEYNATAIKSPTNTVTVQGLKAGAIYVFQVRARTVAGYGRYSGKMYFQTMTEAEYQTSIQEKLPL
# T3: human EphA3 extracellular region-SEAP-His protein (human, UniProt P29320 21-541)
# T3 construct: extracellular domain; also called hEphA3-SEAP-His
# T3 sequence (looked up): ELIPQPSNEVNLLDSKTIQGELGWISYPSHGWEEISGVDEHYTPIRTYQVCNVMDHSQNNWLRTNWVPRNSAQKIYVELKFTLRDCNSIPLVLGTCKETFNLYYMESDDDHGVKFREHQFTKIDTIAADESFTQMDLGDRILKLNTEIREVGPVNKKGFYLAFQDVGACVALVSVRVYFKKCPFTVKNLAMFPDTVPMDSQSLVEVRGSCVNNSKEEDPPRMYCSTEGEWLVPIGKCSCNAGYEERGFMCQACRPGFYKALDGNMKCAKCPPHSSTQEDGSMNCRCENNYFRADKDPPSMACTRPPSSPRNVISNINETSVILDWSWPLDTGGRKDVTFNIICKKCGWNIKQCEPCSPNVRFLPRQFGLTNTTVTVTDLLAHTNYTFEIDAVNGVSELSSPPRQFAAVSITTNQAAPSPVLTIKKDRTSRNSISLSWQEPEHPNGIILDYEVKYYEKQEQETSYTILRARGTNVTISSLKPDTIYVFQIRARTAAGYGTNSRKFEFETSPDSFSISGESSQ
# T4: human EphA1 extracellular region-SEAP-His protein (human, UniProt P21709 26-547)
# T4 construct: extracellular domain; also called hEphA1-SEAP-His
# T4 sequence (looked up): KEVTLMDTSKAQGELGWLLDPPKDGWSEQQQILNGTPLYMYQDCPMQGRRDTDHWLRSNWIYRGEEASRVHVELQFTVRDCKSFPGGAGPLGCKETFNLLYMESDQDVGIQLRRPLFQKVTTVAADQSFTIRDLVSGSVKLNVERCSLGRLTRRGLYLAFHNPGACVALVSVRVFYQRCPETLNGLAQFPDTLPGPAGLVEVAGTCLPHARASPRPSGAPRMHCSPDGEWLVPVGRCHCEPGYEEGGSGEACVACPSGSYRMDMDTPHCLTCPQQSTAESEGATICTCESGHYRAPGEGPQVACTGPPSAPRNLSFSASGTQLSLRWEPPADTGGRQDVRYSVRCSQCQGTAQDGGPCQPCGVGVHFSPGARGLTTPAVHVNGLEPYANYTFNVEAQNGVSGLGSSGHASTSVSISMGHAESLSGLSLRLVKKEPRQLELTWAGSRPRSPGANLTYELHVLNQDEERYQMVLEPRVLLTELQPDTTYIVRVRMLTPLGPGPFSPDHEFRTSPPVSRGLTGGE
# B1: humanized antibody No. 140 (antibody, human IgG2)
# heavy: QVQLVQSGSELKKPGASVKVSCKASGYTFTDYSMHWVRQAPGQGLKWMGWINTETGEPTYAQGFTGRFVFSLDTSVSTAYLQISSLKAEDTAVYYCARIPLYYYGSRYWYFDVWGQGTTVTVSSASTKGPSVFPLAPSSRSTSESTAALGCLVKDYFPEPVTVSWNSGALTSGVHTFPAVLQSSGLYSLSSVVTVPSSNFGTQTYTCNVDHKPSNTKVDKTVERKSCVECPPCPAPPAAAPSVFLFPPKPKDTLMISRTPEVTCVVVDVSHEDPEVQFNWYVDGVEVHNAKTKPREEQFNSTFRVVSVLTVVHQDWLNGKEYKCKVSNKGLPAPIEKTISKTKGQPREPQVYTLPPSREEMTKNQVSLTCLVKGFYPSDIAVEWESNGQPENNYKTTPPMLDSDGSFFLYSKLTVDKSRWQQGNVFSCSVMHEALHNHYTQKSLSLSPG
# light: DIQMTQSPSSLSASVGDRVTITCRASENIYRNLAWYQQKPGKAPKLLVYAATNLADGVPSRFSGSGSGTDYTLTISSLQPEDFATYYCQHFWGTPWTFGQGTKVEIKRTVAAPSVFIFPPSDEQLKSGTASVVCLLNNFYPREAKVQWKVDNALQSGNSQESVTEQDSKDSTYSLSSTLTLSKADYEKHKVYACEVTHQGLSSPVTKSFNRGEC
# notes: human Ig kappa; also called L1-4/HA2
# B2: humanized antibody No. 145 (antibody, human IgG2)
# heavy: B1 heavy with Q62D, G63D, T65K
# light: B1 light with V48L, P80S
# notes: human Ig kappa; also called L1-5/HK2
# B3: humanized antibody No. 155 (antibody, human IgG2)
# heavy: B1 heavy with V2I, Q62D, G63D, T65K
# light: B1 light with V48L, P80S
# notes: human Ig kappa; also called L1-5/HK4
# B4: humanized antibody No. 152 (antibody, human IgG2)
# heavy: B1 heavy with K46E
# light: B1 light with V48L, P80S
# notes: human Ig kappa; also called L1-5/HA1
# B5: humanized antibody No. 153 (antibody, human IgG2)
# heavy: B1 heavy
# light: B1 light with V48L, P80S
# notes: human Ig kappa; also called L1-5/HA2
# B6: humanized antibody No. 139 (antibody, human IgG2)
# heavy: B1 heavy with K46E
# light: B1 light
# notes: human Ig kappa; also called L1-4/HA1
# B7: humanized antibody No. 141 (antibody, human IgG2)
# heavy: B1 heavy with K46E, Q62D, G63D, T65K
# light: B1 light
# notes: human Ig kappa; also called L1-4/HK1
# B8: humanized antibody No. 154 (antibody, human IgG2)
# heavy: B1 heavy with K46E, Q62D, G63D, T65K
# light: B1 light with V48L, P80S
# notes: human Ig kappa; also called L1-5/HK1
# B9: humanized antibody No. 138 (antibody, human IgG2)
# heavy: B1 heavy with V2I
# light: B1 light
# notes: human Ig kappa; also called L1-4/HA4
# B10: humanized antibody No. 156 (antibody, human IgG2)
# heavy: B1 heavy with V2I
# light: B1 light with K45Q, V48L
# notes: human Ig kappa; also called L1-6/HA4
# B11: humanized antibody No. 144 (antibody, human IgG2)
# heavy: B1 heavy with K46E, Q62D, G63D, T65K
# light: B1 light with K45Q, V48L
# notes: human Ig kappa; also called L1-6/HK1
# B12: humanized antibody No. 151 (antibody, human IgG2)
# heavy: B1 heavy with V2I
# light: B1 light with V48L, P80S
# notes: human Ig kappa; also called L1-5/HA4
# B13: humanized antibody No. 142 (antibody, human IgG2)
# heavy: B1 heavy with Q62D, G63D, T65K
# light: B1 light
# notes: human Ig kappa; also called L1-4/HK2
# B14: humanized antibody No. 143 (antibody, human IgG2)
# heavy: B1 heavy with V2I, Q62D, G63D, T65K
# light: B1 light
# notes: human Ig kappa; also called L1-4/HK4
# Target: T1, human EphB3 extracellular …
# Experiment: ELISA
row,A450 as % of hEphA4-SEAP-His,Binder
1,5.4%,B1
2,6.7%,B2
3,5.5%,B3
4,6%,B4
5,5.9%,B5
6,5.6%,B6
7,5.2%,B7
8,6.2%,B8
9,5.1%,B9
10,5.6%,B10
11,5.8%,B11
12,7.3%,B12
13,5.6%,B13
14,5.9%,B14

# Target: T2, human EphB2 extracellular …
# Experiment: ELISA
row,A450 as % of hEphA4-SEAP-His,Binder
1,5.3%,B1
2,6.7%,B2
3,5.5%,B3
4,5.8%,B4
5,5.9%,B5
6,5.7%,B6
7,5.2%,B7
8,6.2%,B8
9,5.2%,B9
10,5.5%,B10
11,5.7%,B11
12,7%,B12
13,5.6%,B13
14,5.8%,B14

# Target: T5, human EphA5 extracellular region-SEAP-His protein (human, UniProt P54756 25-573)
# T5 construct: extracellular domain; also called hEphA5-SEAP-His
# Experiment: ELISA
# T5 sequence (P54756 25-573): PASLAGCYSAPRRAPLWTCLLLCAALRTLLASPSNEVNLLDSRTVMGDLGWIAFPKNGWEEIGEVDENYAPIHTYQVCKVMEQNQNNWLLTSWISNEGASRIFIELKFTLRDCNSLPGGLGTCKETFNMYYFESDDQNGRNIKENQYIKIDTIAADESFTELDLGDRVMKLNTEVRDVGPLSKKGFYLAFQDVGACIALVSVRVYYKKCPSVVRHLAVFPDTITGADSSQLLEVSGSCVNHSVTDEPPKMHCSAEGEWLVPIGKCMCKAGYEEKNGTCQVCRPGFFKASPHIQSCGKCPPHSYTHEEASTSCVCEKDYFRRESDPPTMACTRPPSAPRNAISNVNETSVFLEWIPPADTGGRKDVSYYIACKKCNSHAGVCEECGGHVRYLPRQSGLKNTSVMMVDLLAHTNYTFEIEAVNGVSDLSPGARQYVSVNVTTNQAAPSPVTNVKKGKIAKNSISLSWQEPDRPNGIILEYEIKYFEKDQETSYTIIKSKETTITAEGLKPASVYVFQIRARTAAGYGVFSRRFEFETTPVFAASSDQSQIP
row,A450 as % of hEphA4-SEAP-His,Binder
1,5.4%,B1
2,6.6%,B2
3,5.6%,B3
4,5.8%,B4
5,6.1%,B5
6,5.7%,B6
7,5.3%,B7
8,6.3%,B8
9,5.1%,B9
10,5.7%,B10
11,5.6%,B11
12,7%,B12
13,5.7%,B13
14,6.1%,B14

# Target: SEAP-His (UniProt P05187 23-511)
# Experiment: ELISA
# Chain of SEAP-His (P05187 23-511): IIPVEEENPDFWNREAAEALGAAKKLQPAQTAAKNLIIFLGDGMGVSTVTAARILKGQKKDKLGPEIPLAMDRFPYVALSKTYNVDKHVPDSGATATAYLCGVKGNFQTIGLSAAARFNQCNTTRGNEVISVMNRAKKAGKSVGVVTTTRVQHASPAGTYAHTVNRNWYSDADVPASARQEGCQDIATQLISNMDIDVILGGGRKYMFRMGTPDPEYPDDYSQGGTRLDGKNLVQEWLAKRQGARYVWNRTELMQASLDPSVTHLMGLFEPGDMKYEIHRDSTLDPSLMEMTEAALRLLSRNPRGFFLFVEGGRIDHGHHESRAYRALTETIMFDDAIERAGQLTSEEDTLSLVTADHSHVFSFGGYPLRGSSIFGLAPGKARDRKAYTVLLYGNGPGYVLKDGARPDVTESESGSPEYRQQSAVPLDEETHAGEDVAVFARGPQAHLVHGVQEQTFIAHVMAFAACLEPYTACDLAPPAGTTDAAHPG
row,A450 as % of hEphA4-SEAP-His,Binder
1,5.4%,B1
2,6.4%,B2
3,5.8%,B3
4,5.4%,B4
5,5.9%,B5
6,5.7%,B6
7,5%,B7
8,6.3%,B8
9,5.1%,B9
10,5.4%,B10
11,5.7%,B11
12,6.8%,B12
13,5.8%,B13
14,6.3%,B14

# Target: T3, human EphA3 extracellular …
# Experiment: ELISA
row,A450 as % of hEphA4-SEAP-His,Binder
1,5.5%,B1
2,6.6%,B2
3,5.6%,B3
4,5.8%,B4
5,6.1%,B5
6,5.9%,B6
7,5.3%,B7
8,6.2%,B8
9,4.9%,B9
10,5.7%,B10
11,5.7%,B11
12,6.9%,B12
13,5.5%,B13
14,5.6%,B14

# Target: T4, human EphA1 extracellular …
# Experiment: ELISA
row,A450 as % of hEphA4-SEAP-His,Binder
1,5.5%,B1
2,6.7%,B2
3,5.5%,B3
4,5.8%,B4
5,6.3%,B5
6,5.7%,B6
7,5.3%,B7
8,6.4%,B8
9,5.2%,B9
10,5.7%,B10
11,5.6%,B11
12,7.1%,B12
13,5.6%,B13
14,6%,B14
